Results as given in IntAct's records for PubMed 23136403.

B1: Catenin alpha-3 (Homo sapiens), Q9UI47-1 (parent)
chain: MSAETPITLNIDPQDLQVQTFTVEKLLEPLIIQVTTLVNCPQNPSSRKKGRSKRASVLLASVEEATWNLLDKGEKIAQEATVLKDELTASLEEVRKESEALKVSAERFTDDPCFLPKREAVVQAARALLAAVTRLLILADMIDVMCLLQHVSAFQRTFESLKNVANKSDLQKTYQKLGKELENLDYLAFKRQQDLKSPNQRDEIAGARASLKENSPLLHSICSACLEHSDVASLKASKDTVCEEIQNALNVISNASQGIQNMTTPPEPQAATLGSALDELENLIVLNPLTVTEEEIRPSLEKRLEAIISGAALLADSSCTRDLHRERIIAECNAIRQALQDLLSEYMNNAGKKERSNTLNIALDNMCKKTRDLRRQLRKAIIDHVSDSFLDTTVPLLVLIEAAKNGREKEIKEYAAIFHEHTSRLVEVANLACSMSTNEDGIKIVKIAANHLETLCPQIINAALALAARPKSQAVKNTMEMYKRTWENHIHVLTEAVDDITSIDDFLAVSESHILEDVNKCIIALRDQDADNLDRAAGAIRGRAARVAHIVTGEMDSYEPGAYTEGVMRNVNFLTSTVIPEFVTQVNVALEALSKSSLNVLDDNQFVDISKKIYDTIHDIRCSVMMIRTPEELEDVSDLEEEHEVRSHTSIQTEGKTDRAKMTQLPEAEKEKIAEQVADFKKVKSKLDAEIEIWDDTSNDIIVLAKNMCMIMMEMTDFTRGKGPLKHTTDVIYAAKMISESGSRMDVLARQIANQCPDPSCKQDLLAYLEQIKFYSHQLKICSQVKAEIQNLGGELIMSALDSVTSLIQAAKNLMNAVVQTVKMSYIASTKIIRIQSPAGPRHPVVMWRMKAPAKKPLIKREKPEETCAAVRRGSAKKKIHPLQVMSEFRGRQIY
partner: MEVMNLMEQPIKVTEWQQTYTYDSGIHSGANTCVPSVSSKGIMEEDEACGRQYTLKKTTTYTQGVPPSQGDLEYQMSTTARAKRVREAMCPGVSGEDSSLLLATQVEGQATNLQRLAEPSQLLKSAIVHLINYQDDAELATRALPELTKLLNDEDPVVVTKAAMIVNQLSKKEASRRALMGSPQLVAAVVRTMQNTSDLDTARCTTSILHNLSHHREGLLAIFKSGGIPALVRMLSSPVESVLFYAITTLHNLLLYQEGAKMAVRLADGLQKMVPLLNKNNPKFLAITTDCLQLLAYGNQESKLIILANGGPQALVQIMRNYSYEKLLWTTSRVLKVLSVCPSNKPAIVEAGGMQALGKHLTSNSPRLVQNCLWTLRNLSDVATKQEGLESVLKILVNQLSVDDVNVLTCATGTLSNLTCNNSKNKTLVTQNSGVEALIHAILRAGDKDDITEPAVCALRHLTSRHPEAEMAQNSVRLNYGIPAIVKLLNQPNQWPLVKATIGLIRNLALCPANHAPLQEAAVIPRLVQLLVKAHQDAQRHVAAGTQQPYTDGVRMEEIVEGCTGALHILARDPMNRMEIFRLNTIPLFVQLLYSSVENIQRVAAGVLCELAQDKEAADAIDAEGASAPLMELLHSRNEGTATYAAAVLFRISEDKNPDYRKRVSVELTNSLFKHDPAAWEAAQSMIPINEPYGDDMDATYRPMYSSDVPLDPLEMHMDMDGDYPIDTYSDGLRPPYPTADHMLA
B2: Catenin alpha-3 (Homo sapiens), Q9UI47-1 (parent)
chain: B1 chain
partner: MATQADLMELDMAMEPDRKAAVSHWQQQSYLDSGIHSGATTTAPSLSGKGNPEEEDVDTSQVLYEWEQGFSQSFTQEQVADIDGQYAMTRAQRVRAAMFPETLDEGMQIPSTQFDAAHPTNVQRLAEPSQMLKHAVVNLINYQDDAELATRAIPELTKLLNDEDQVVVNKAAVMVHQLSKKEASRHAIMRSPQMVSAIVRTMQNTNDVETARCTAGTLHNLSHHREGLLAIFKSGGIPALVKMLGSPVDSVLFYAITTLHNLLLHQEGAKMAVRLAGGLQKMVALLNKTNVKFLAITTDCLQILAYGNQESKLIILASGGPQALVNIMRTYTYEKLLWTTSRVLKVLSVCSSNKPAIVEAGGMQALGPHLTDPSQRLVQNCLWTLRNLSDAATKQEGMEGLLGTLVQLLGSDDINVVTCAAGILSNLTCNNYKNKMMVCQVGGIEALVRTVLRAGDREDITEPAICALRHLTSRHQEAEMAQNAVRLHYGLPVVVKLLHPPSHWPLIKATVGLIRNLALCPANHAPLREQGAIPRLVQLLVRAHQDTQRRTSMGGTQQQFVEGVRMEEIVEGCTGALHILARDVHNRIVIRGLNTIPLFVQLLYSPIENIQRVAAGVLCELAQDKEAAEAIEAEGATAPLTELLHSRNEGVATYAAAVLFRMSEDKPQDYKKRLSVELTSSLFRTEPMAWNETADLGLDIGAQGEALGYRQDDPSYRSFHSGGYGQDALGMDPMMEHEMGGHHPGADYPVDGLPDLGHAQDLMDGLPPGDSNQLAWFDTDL
B3: Catenin alpha-3 (Homo sapiens), Q9UI47-1 (parent)
chain: B1 chain
partner: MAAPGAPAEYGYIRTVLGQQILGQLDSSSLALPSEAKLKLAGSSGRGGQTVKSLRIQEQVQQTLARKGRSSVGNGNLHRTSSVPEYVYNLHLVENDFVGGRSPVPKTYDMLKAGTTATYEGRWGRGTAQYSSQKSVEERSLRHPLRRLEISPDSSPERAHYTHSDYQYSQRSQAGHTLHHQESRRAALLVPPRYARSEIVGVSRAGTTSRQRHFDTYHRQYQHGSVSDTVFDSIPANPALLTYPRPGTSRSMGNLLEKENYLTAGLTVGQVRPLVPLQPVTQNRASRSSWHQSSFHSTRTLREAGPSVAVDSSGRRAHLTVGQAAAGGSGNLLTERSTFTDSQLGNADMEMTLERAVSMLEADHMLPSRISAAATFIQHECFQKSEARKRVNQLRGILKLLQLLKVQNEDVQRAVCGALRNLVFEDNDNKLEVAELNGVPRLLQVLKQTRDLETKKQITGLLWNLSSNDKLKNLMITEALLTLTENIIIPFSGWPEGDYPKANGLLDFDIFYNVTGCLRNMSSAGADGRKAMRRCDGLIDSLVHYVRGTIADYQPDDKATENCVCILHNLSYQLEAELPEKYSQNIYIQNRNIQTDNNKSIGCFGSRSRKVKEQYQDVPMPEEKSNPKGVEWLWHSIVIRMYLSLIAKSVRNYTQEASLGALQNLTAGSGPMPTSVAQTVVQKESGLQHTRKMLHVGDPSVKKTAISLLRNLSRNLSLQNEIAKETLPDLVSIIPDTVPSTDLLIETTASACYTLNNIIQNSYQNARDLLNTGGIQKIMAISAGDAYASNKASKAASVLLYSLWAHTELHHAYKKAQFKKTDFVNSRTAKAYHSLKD
B4: Catenin alpha-3 (Homo sapiens), Q9UI47-1 (parent)
chain: B1 chain
B5: Catenin alpha-3 (Homo sapiens), Q9UI47-1 (parent)
chain: B1 chain
partner: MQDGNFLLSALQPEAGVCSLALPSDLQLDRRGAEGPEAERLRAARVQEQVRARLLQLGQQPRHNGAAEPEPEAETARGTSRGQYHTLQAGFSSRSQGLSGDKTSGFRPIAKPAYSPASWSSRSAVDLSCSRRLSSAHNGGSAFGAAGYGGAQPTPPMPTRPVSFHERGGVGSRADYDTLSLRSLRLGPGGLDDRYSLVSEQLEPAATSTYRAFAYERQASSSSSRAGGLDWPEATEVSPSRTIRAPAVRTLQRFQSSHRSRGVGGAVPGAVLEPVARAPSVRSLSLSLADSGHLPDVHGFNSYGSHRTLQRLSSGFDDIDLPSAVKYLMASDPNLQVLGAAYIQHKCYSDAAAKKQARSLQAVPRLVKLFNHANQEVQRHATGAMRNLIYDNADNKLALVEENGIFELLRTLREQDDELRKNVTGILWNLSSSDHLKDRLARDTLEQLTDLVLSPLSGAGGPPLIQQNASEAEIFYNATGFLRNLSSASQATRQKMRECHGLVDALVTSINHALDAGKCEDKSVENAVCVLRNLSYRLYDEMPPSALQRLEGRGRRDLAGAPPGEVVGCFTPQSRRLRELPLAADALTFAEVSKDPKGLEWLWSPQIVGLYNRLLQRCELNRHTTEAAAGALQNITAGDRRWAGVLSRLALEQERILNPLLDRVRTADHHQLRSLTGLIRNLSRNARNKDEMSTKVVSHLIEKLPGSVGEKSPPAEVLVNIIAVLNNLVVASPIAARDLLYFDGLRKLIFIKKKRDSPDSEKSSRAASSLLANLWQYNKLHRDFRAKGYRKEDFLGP

Variants of: B1
Conditions: with plak_human JUP

effect of a mutation on the interaction	Variant
disrupting interaction strength	V94D

Variants of: B2
Conditions: with ctnb1_rat Ctnnb1, Q9WU82

effect of a mutation on the interaction	Variant
with no effect	V94D

Variants of: B3
Conditions: with PKP2, Q99959-2

effect of a mutation on the interaction	Variant
with no effect	V94D

Variants of: B4
Conditions: with ctnb1_human CTNNB1, P35222

effect of a mutation on the interaction	Variant
disrupting interaction strength	V94D

Variants of: B4
Conditions: with ctnb1_human CTNNB1, P35222
Remark: another data set of the same source

effect of a mutation on the interaction	Variant
decreasing interaction strength	V94D

Variants of: B4
Conditions: with ctnb1_mouse Ctnnb1, Q02248

effect of a mutation on the interaction	Variant
disrupting interaction strength	V94D

Variants of: B5
Conditions: with pkp3_human PKP3, Q9Y446

effect of a mutation on the interaction	Variant
with no effect	V94D
